Where a chain is given by its changes, count along the chain named. Like-named read-outs stand apart in the source and are kept apart here. *1 amine or outer side, *2 acyl side, *3 side chain or, on linkers, in order; H or OH if unused. Where no end group is shown, it is not given here. Side-chain parts run from the residue outwards. [ ]: non-standard residue; d: D form. The star is where a group is joined. C20 diacid = O=C(O)CCCCCCCCCCCCCCCCCCC(=O)*; C18 diacid = O=C(O)CCCCCCCCCCCCCCCCC(=O)*; γGlu = O=C(O)[C@H](CCC(=O)[*:2])N[*:1]; εLys = N[C@@H](CCCCN[*:1])C(=O)[*:2]; TRX = not defined here; Aib = CC(C)(N)C(=O)O
T1: hGIPR (Homo sapiens, UniProt P48546)
T1 construct: expressed in transfected cells; host or cells: CHO CRE-luciferase reporter cells
T1 sequence (P48546 22-466): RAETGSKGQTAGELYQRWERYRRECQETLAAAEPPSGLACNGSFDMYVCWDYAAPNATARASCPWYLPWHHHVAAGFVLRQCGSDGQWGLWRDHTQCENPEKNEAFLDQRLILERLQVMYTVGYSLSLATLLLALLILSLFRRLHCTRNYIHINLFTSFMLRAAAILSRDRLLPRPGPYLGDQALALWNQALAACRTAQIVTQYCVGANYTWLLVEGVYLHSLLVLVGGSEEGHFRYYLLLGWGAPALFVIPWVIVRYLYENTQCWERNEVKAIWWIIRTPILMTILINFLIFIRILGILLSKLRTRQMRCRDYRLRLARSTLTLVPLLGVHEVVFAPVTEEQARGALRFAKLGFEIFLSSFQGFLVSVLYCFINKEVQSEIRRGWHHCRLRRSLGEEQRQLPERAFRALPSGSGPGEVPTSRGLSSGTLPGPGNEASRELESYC

T2: human GIP receptor (human, UniProt P48546 22-466)
T2 sequence (looked up): T1 sequence (P48546 22-466)

T3: human neuropeptide Y2 receptor (human, UniProt P49146 1-381)
T3 sequence (looked up): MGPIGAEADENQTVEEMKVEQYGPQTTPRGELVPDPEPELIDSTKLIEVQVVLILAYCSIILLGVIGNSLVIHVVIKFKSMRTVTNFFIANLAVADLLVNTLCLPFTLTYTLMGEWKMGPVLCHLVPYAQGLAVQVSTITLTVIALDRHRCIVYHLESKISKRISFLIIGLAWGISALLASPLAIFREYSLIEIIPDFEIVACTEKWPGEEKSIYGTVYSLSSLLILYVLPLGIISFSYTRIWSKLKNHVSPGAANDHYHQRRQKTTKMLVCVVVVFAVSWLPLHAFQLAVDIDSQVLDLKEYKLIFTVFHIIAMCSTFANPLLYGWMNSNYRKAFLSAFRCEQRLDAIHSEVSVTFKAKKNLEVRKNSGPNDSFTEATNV

B1: Compound 17 (peptide)
peptide: YXEGTFTSDYSIXLEKQAQXAFVRHLINKXTRQRY
modifications: Aib at 2, 13, 20, 30; NMeQ at 33; Lys29 epsilon-amino acylated with C18DA-gGlu-gGlu-gGlu-gGlu-gGlu-gGlu-eLys; C-terminal amide
B2: Compound 80 (peptide)
peptide: B1 peptide with I27L
modifications: Aib at 2, 13, 20, 30; Lys29 epsilon-amino acylated with C20DA-gGlu-gGlu-gGlu-gGlu-gGlu-gGlu-eLys; C-terminal amide
B3: Compound 24 (peptide)
peptide: B1 peptide with Q17I
modifications: Aib at 2, 13, 20, 30; Lys29 epsilon-amino acylated with C18DA-gGlu-gGlu-gGlu-gGlu-gGlu-gGlu-eLys; C-terminal amide
B4: Compound 15 (peptide)
peptide: B1 peptide with Y10F
modifications: Aib at 2, 13, 20, 30; Lys29 epsilon-amino acylated with C20DA-gGlu-gGlu-gGlu-gGlu-gGlu-gGlu-eLys; C-terminal amide
B5: Compound 71 (peptide)
peptide: B1 peptide with K16E
modifications: Aib at 2, 13, 20, 30; Lys29 epsilon-amino acylated with C18DA-gGlu-gGlu-gGlu-gGlu-gGlu-gGlu-eLys; C-terminal amide
B6: Compound 20 (peptide)
peptide: B1 peptide with Y10L
modifications: Aib at 2, 13, 20, 30; Lys29 epsilon-amino acylated with C20DA-gGlu-gGlu-gGlu-gGlu-gGlu-gGlu-eLys; C-terminal amide
B7: Compound 53 (peptide)
peptide: B1 peptide with V23I
modifications: Aib at 2, 20, 30; aMeL at 13; Lys29 epsilon-amino acylated with C20DA-gGlu-gGlu-gGlu-gGlu-gGlu-gGlu-eLys; C-terminal amide

Columns and labels:
hGIPR = target: T1, hGIPR; assay: hGIPR CreLuc assay in 0.5% and 100% plasma (CHO CRE-luciferase reporter cells); format: cell-based; details: 0.5% human plasma, read-out: hGIPR 0.5% hP
[1] = Solubility in 0.1 M phosphate buffer at pH 7; format: physicochemical; details: 0.1 M phosphate buffer at pH 7, 10 mg/mL final peptide concentration, shaking 2 hours at room temperature, peptides as TFA-salts; measured sample pH 6.5-7.0
hGLP1R = target: T4, hGLP1R (Homo sapiens, UniProt P43220); assay: hGLP1R CreLuc assay in 0.5% and 100% plasma (HEK-293 CRE-luciferase reporter cells); format: cell-based; details: HEK-293 reporter cells
T4 construct: expressed in transfected cells; host or cells: HEK-293 CRE-luciferase reporter cells
T4 sequence (P43220 24-463): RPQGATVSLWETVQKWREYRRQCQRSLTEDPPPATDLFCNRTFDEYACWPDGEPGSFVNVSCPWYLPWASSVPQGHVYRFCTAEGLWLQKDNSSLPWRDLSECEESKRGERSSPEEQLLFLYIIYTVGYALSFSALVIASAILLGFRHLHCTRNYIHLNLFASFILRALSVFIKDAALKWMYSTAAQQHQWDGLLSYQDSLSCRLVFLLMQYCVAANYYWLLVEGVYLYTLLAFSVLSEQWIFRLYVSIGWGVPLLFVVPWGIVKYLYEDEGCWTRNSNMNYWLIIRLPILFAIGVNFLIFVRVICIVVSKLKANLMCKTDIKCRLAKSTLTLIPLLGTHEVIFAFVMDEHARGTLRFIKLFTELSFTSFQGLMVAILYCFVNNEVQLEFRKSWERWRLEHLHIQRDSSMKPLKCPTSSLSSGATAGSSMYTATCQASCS

human GIP receptor = target: T2, human GIP receptor; assay: cell-based or functional assay
[2] = target: T3, human neuropeptide Y2 receptor; assay: cell-based or functional assay
[3] = 0.5% human plasma, read-out: hGLP1R 0.5% hP
[4] = 100% human plasma, read-out: hGLP1R 100% hP

Molecule	EC50, CreLuc reporter, 100% hP (human GIP receptor)	EC50, CreLuc reporter, 0.5% hP (human GIP receptor)	other results
CC[C@H](C)[C@H](NC(=O)[C@H](CCCCN)NC(=O)[C@H](CC(=O)O)NC(=O)[C@H](CC(C)C)NC(=O)C(C)(C)NC(=O)[C@@H](NC(=O)[C@H](CO)NC(=O)[C@H](Cc1ccc(O)cc1)NC(=O)[C@H](CC(=O)O)NC(=O)[C@H](CO)NC(=O)[C@@H](NC(=O)[C@H](Cc1ccccc1)NC(=O)[C@@H](NC(=O)CNC(=O)[C@H](CCC(=O)O)NC(=O)C(C)(C)NC(=O)[C@@H](N)Cc1ccc(O)cc1)[C@@H](C)O)[C@@H](C)O)[C@@H](C)CC)C(=O)N[C@@H](C)C(=O)N[C@@H](CCC(N)=O)C(=O)NC(C)(C)C(=O)N[C@@H](C)C(=O)N[C@@H](Cc1ccccc1)C(=O)N[C@H](C(=O)N[C@@H](CCCNC(=N)N)C(=O)N[C@@H](Cc1c[nH]cn1)C(=O)N[C@@H](CC(C)C)C(=O)N[C@H](C(=O)N[C@@H](CC(N)=O)C(=O)N[C@@H](CCCCNC(=O)[C@@H](N)CCCCNC(=O)CC[C@H](NC(=O)CC[C@H](NC(=O)CC[C@H](NC(=O)CC[C@H](NC(=O)CC[C@H](NC(=O)CC[C@H](NC(=O)CCCCCCCCCCCCCCCCC(=O)O)C(=O)O)C(=O)O)C(=O)O)C(=O)O)C(=O)O)C(=O)O)C(=O)NC(C)(C)C(=O)N[C@H](C(=O)N[C@@H](CCCNC(=N)N)C(=O)N[C@@H](CCC(N)=O)C(=O)N[C@@H](CCCNC(=N)N)C(=O)N[C@@H](Cc1ccc(O)cc1)C(N)=O)[C@@H](C)O)[C@@H](C)CC)C(C)C [Compound 33, Y-Aib-E-G-T-F-T-S-D-Y-S-I-Aib-L-D-K-I-A-Q-Aib-A-F-V-R-H-L-I-N-K(1,3)-Aib-T-R-Q-R-Y-NH2.C18DA-gGlu-gGlu-gGlu-gGlu-gGlu-gGlu-eLys(1,2)]			EC50 (hGIPR): 0.7 nM; solubility at 2 h [1]: 8900 µg/mL; EC50 (hGLP1R; [3]): 0.1 nM; EC50 (hGLP1R; [4]): 1 nM
CC[C@H](C)[C@H](NC(=O)[C@H](CC(C)C)NC(=O)[C@H](Cc1c[nH]cn1)NC(=O)[C@H](CCCNC(=N)N)NC(=O)[C@@H](NC(=O)[C@H](Cc1ccccc1)NC(=O)[C@H](C)NC(=O)C(C)(C)NC(=O)[C@H](CCC(N)=O)NC(=O)[C@H](C)NC(=O)[C@H](CCC(N)=O)NC(=O)[C@H](CCCCN)NC(=O)[C@H](CCC(=O)O)NC(=O)[C@H](CC(C)C)NC(=O)C(C)(C)NC(=O)[C@@H](NC(=O)[C@H](CO)NC(=O)[C@H](Cc1ccc(O)cc1)NC(=O)[C@H](CC(=O)O)NC(=O)[C@H](CO)NC(=O)[C@@H](NC(=O)[C@H](Cc1ccccc1)NC(=O)[C@@H](NC(=O)CNC(=O)[C@H](CCC(=O)O)NC(=O)C(C)(C)NC(=O)[C@@H](N)Cc1ccc(O)cc1)[C@@H](C)O)[C@@H](C)O)[C@@H](C)CC)C(C)C)C(=O)N[C@@H](CC(N)=O)C(=O)N[C@@H](CCCCNC(=O)CC[C@H](NC(=O)CC[C@H](NC(=O)CC[C@H](NC(=O)CC[C@H](NC(=O)CC[C@H](NC(=O)CC[C@H](NC(=O)CCCCCCCCCCCCCCCCC(=O)O)C(=O)O)C(=O)O)C(=O)O)C(=O)O)C(=O)O)C(=O)O)C(=O)N[C@@H](CC(C)C)C(=O)N[C@H](C(=O)N[C@@H](CCCNC(=N)N)C(=O)N[C@@H](CCC(N)=O)C(=O)N[C@@H](CCCNC(=N)N)C(=O)N[C@@H](Cc1ccc(O)cc1)C(N)=O)[C@@H](C)O [Compound 12, Y-Aib-E-G-T-F-T-S-D-Y-S-I-Aib-L-E-K-Q-A-Q-Aib-A-F-V-R-H-L-I-N-K(1,3)-L-T-R-Q-R-Y-NH2.C18DA-gGlu-gGlu-gGlu-gGlu-gGlu-gGlu(1,2)]			EC50 (hGIPR): 0.8 nM; solubility at 2 h [1]: 5000 µg/mL; EC50 (hGLP1R; [3]): 1.8 nM
CC[C@H](C)[C@H](NC(=O)[C@H](CC(C)C)NC(=O)[C@H](Cc1c[nH]cn1)NC(=O)[C@H](CCCNC(=N)N)NC(=O)[C@@H](NC(=O)[C@H](Cc1ccccc1)NC(=O)[C@H](C)NC(=O)C(C)(C)NC(=O)[C@H](CCC(N)=O)NC(=O)[C@H](C)NC(=O)[C@H](CCC(N)=O)NC(=O)[C@H](CCCCN)NC(=O)[C@H](CCC(=O)O)NC(=O)[C@H](CC(C)C)NC(=O)C(C)(C)NC(=O)[C@@H](NC(=O)[C@H](CO)NC(=O)[C@H](Cc1ccc(O)cc1)NC(=O)[C@H](CC(=O)O)NC(=O)[C@H](CO)NC(=O)[C@@H](NC(=O)[C@H](Cc1ccccc1)NC(=O)[C@@H](NC(=O)CNC(=O)[C@H](CCC(=O)O)NC(=O)C(C)(C)NC(=O)[C@@H](N)Cc1ccc(O)cc1)[C@@H](C)O)[C@@H](C)O)[C@@H](C)CC)C(C)C)C(=O)N[C@@H](CC(N)=O)C(=O)N[C@@H](CCCCNC(=O)[C@@H](N)CCCCNC(=O)CC[C@H](NC(=O)CC[C@H](NC(=O)CC[C@H](NC(=O)CC[C@H](NC(=O)CC[C@H](NC(=O)CC[C@H](NC(=O)CCCCCCCCCCCCCCCCC(=O)O)C(=O)O)C(=O)O)C(=O)O)C(=O)O)C(=O)O)C(=O)O)C(=O)N[C@@H](CC(C)C)C(=O)N[C@H](C(=O)N[C@@H](CCCNC(=N)N)C(=O)N[C@@H](CCC(N)=O)C(=O)N[C@@H](CCCNC(=N)N)C(=O)N[C@@H](Cc1ccc(O)cc1)C(N)=O)[C@@H](C)O [Compound 127, Y-Aib-E-G-T-F-T-S-D-Y-S-I-Aib-L-E-K-Q-A-Q-Aib-A-F-V-R-H-L-I-N-K(1,3)-L-T-R-Q-R-Y-NH2.C18DA-gGlu-gGlu-gGlu-gGlu-gGlu-gGlu-eLys(1,2)]			EC50 (hGIPR): 0.4 nM; solubility at 2 h [1]: 4500 µg/mL; EC50 (hGLP1R; [4]): 4 nM
Y[Aib]EGTFTSDYSI[Aib]LEKQAQ[Aib]AFVRHLINK([εLys-εLys-γGlu-γGlu-γGlu-γGlu-γGlu-γGlu-C18 diacid])[Aib]TRQRY-NH2 [Compound 11]	8 nM		
Y[Aib]EGTFTSDYSI[Aib]LEKQAQ[Aib]AFVRHLINK([εLys-γGlu-γGlu-γGlu-γGlu-γGlu-γGlu-γGlu-C18 diacid])ITRQRY-NH2 [Compound 18]		0.2 nM	
B1	2 nM		EC50, CreLuc reporter, 0.5% hP [2]: 29.4 nM
B2		1.7 nM	
B3	26.2 nM	1 nM	
B4		0.6 nM	
B5		0.3 nM	
B6		0.4 nM	
B7	1.7 nM	0.1 nM	
Y[Aib]EGTFTSDYSI[Aib]LEKQAQ[Aib]AFVRHLINK([εLys-γGlu-γGlu-γGlu-γGlu-γGlu-γGlu-γGlu-C20 diacid])[Aib]TRQRY-NH2 [Compound 35]		0.7 nM	EC50, CreLuc reporter, 0.5% hP [2]: 22.9 nM
Y[Aib]EGTFTSDYSILLEKQAQ[Aib]AFVRHLINK([γGlu-γGlu-γGlu-γGlu-γGlu-γGlu-C20 diacid])[Aib]TRQRY-NH2 [Compound 57]		0.3 nM	
Y[Aib]EGTFTSDYSI[Aib]LEKQAQ[Aib]EFVRHLINK([εLys-γGlu-γGlu-γGlu-γGlu-γGlu-γGlu-γGlu-C18 diacid])LTRQRY-NH2 [Compound 32]	6.5 nM	0.5 nM	EC50, CreLuc reporter, 0.5% hP [2]: 17.1 nM; EC50, CreLuc reporter, 100% hP [2]: 44.6 nM
Y[Aib]EGTFTSDYSI[Aib]LEKQAQ[Aib]AFVRHLINK([γGlu-γGlu-γGlu-γGlu-γGlu-γGlu-TRX-C18 diacid])[Aib]TRQRY-NH2 (reading uncertain) [Compound 31]	14.9 nM		EC50, CreLuc reporter, 0.5% hP [2]: 76.4 nM; EC50, CreLuc reporter, 100% hP [2]: 131 nM

From patent publication US20250382344A1, “Soluble GLP1/GIP/NPY2 Receptor Triple Agonists” (Boehringer Ingelheim International GmH, priority 2024, published 2025)
